PMC11565934 (bioRxiv, 2024)

Target: myristylated PKA-Cα K7C (mouse, UniProt P05132 1-351, K7C, N-terminal myristylation)
Assay: SPR

B1: phosphorylated SMO IFR→AAA (I573A, F577A, R580A; FLAG-tagged mouse SMO 64-674) in nanodiscs (receptor)
chain: LLSHCGRAAHCEPLRYNVCLGSALPYGATTTLLAGDSDSQEEAHGKLVLWSGLRNAPRCWAVIQPLLCAVYMPKCENDRVELPSRTLCQATRGPCAIVERERGWPDFLRCTPDHFPEGCPNEVQNIKFNSSGQCEAPLVRTDNPKSWYEDVEGCGIQCQNPLFTEAEHQDMHSYIAAFGAVTGLCTLFTLATFVADWRNSNRYPAVILFYVNACFFVGSIGWLAQFMDGARREIVCRADGTMRFGEPTSSETLSCVIIFVIVYYALMAGVVWFVVLTYAWHTSFKALGTTYQPLSGKTSYFHLLTWSLPFVLTVAILAVAQVDGDSVSGICFVGYKNYRYRAGFVLAPIGLVLIVGGYFLIRGVMTLFSIKSNHPGLLSEKAASKINETMLRLGIFGFLAFGFVLITFSCHFYDFFNQAEWERSFRDYVLCQANVTIGLPTKKPIPDCEIKNRPSLLVEKINLFAMFGTGIAMSTWVWTKATLLIWRRTWCRLTGHSDDEPKRIKKSKMAAKAASKARELLQNPGQELSFSMHTVSHDGPVAGLAFDLNEPSADVSSAWAQHVTKMVARRGAILPQDVSVTPVATPVPPEEQANMWLVEAEISPELEKRLG
modifications: GRK2/3-phosphorylated; mapped sites pS560, pS594, pT597, pS599, pS615, pS642, pT644, pT648
**Q.** Which Kd does the source give for B1 here?
**A.** The Kd was 222 nM.
